Measurements reported in patent US20250034551A1, “METHODS AND SYSTEMS FOR HIGH-THROUGHPUT BIOCHEMICAL SCREENS” (THINK BIOSCIENCE, INC., priority 2021, published 2025).

Target: kinase substrate domain (MidT) fused to the omega subunit of RNA polymerase (RpoZ), no protease recognition site in the linker, P0A800
Sequence (P0A800 whole entry, looked up, the tested form may be a part): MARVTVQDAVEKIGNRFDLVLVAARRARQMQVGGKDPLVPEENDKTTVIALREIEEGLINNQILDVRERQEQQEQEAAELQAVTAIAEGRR

B1: Striatum-enriched protein-tyrosine phosphatase catalytic domain (STEP282-563) (protein)
chain: MSSGVDLGTENLYFQSMSRVLQAEELHEKALDPFLLQAEFFEIPMNFVDPKEYDIPGLVRKNRYKTILPNPHSRVCLTSPDPDDPLSSYINANYIRGYGGEEKVYIATQGPIVSTVADFWRMVWQEHTPIIVMITNIEEMNEKCTEYWPEEQVAYDGVEITVQKVIHTEDYRLRLISLKSGTEERGLKHYWFTSWPDQKTPDRAPPLLHLVREVEEAAQQEGPHCAPIIVHCSAGIGRTGCFIATSICCQQLRQEGVVDILKTTCQLRQDRGGMIQTCEQYQFVHHVMSLYEKQLSHQS
- spectinomycin resistance of E. coli with the PTP-specific B2H: did not yield functional two-hybrid systems, most likely due to low activity against the MidT substrate
